{
  "source": "patent US20130289246A1",
  "key": {"[1]": {"biological_target": "soluble 1999 H1 HA (seasonal 1999 H1N1) (Influenza A virus (H1N1, 1999))", "assay": "ELISA, supernate"}, "[2]": {"biological_target": "recombinant soluble 1957 H2 HA (A/Japan/305+/1957) (Influenza A virus A/Japan/305+/1957 (H2N2))", "assay": "ELISA, supernate"}, "[3]": {"biological_target": "recombinant soluble trimeric 2009 H1 HA (A/California/04/2009, wild type) (Influenza A virus A/California/04/2009 (H1N1))", "assay": "ELISA, supernate"}, "[4]": {"biological_target": "soluble 2004 H5 HA (Influenza A virus (H5N1, 2004))", "assay": "ELISA, supernate"}, "[5]": {"biological_target": "1997 H9N2 HA (Influenza A virus (H9N2, 1997))", "assay": "ELISA, supernate"}, "[6]": {"biological_target": "1997 H6N1 HA (Influenza A virus (H6N1, 1997))", "assay": "ELISA, supernate"}, "[7]": {"biological_target": "soluble 1999 H1 HA (seasonal 1999 H1N1) (Influenza A virus (H1N1, 1999))", "assay": "ELISA, supernate", "remark": "listed apart in the source"}, "[8]": {"biological_target": "recombinant soluble 1957 H2 HA (A/Japan/305+/1957) (Influenza A virus A/Japan/305+/1957 (H2N2))", "assay": "ELISA, supernate", "remark": "listed apart in the source"}, "[9]": {"biological_target": "recombinant soluble trimeric 2009 H1 HA (A/California/04/2009, wild type) (Influenza A virus A/California/04/2009 (H1N1))", "assay": "ELISA, supernate", "remark": "listed apart in the source"}, "[10]": {"biological_target": "soluble 2004 H5 HA (Influenza A virus (H5N1, 2004))", "assay": "ELISA, supernate", "remark": "listed apart in the source"}, "[11]": {"biological_target": "recombinant soluble 1968 H3 HA (A/Aichi/2/1968) (Influenza A virus A/Aichi/2/1968 (H3N2)) (UniProt P03437)", "assay": "ELISA, supernate"}, "[12]": {"biological_target": "recombinant soluble trimeric 1918 H1 HA (A/South Carolina/1/1918, wild type) (Influenza A virus A/South Carolina/1/1918 (H1N1)) (UniProt Q9WFX3)", "assay": "ELISA, supernate"}, "[13]": {"biological_target": "recombinant soluble 1968 H3 HA (A/Aichi/2/1968) (Influenza A virus A/Aichi/2/1968 (H3N2)) (UniProt P03437)", "assay": "ELISA, supernate", "remark": "listed apart in the source"}, "[14]": {"biological_target": "recombinant soluble trimeric 1918 H1 HA (A/South Carolina/1/1918, wild type) (Influenza A virus A/South Carolina/1/1918 (H1N1)) (UniProt Q9WFX3)", "assay": "ELISA, supernate", "remark": "listed apart in the source"}, "[15]": {"biological_target": "soluble 1999 H1 HA (seasonal 1999 H1N1) (Influenza A virus (H1N1, 1999))", "assay": "ELISA, recombinant mAb"}, "[16]": {"biological_target": "recombinant soluble 1957 H2 HA (A/Japan/305+/1957) (Influenza A virus A/Japan/305+/1957 (H2N2))", "assay": "ELISA, recombinant mAb"}, "[17]": {"biological_target": "recombinant soluble trimeric 2009 H1 HA (A/California/04/2009, wild type) (Influenza A virus A/California/04/2009 (H1N1))", "assay": "ELISA, recombinant mAb"}, "[18]": {"biological_target": "soluble 2004 H5 HA (Influenza A virus (H5N1, 2004))", "assay": "ELISA, recombinant mAb"}, "[19]": {"biological_target": "soluble 1999 H1 HA (seasonal 1999 H1N1) (Influenza A virus (H1N1, 1999))", "assay": "ELISA, recombinant mAb", "remark": "listed apart in the source"}, "[20]": {"biological_target": "recombinant soluble 1957 H2 HA (A/Japan/305+/1957) (Influenza A virus A/Japan/305+/1957 (H2N2))", "assay": "ELISA, recombinant mAb", "remark": "listed apart in the source"}, "[21]": {"biological_target": "recombinant soluble trimeric 2009 H1 HA (A/California/04/2009, wild type) (Influenza A virus A/California/04/2009 (H1N1))", "assay": "ELISA, recombinant mAb", "remark": "listed apart in the source"}, "[22]": {"biological_target": "soluble 2004 H5 HA (Influenza A virus (H5N1, 2004))", "assay": "ELISA, recombinant mAb", "remark": "listed apart in the source"}, "[23]": {"biological_target": "1997 H9N2 HA (Influenza A virus (H9N2, 1997))", "assay": "ELISA, recombinant mAb"}, "[24]": {"biological_target": "1997 H6N1 HA (Influenza A virus (H6N1, 1997))", "assay": "ELISA, recombinant mAb"}},
  "note": "Like-named read-outs stand apart in the source and are kept apart here.",
  "data": [
    {"binder": "mAb 6J24 (antibody, V domains shown) VH: EVQLVESGGGLVQPGRSLRLSCVGSGFNFDGYAMQWVRQVPGKGLEWVSGISWHSDSTGYADSVRGRFTISRDNAKNSLYLQMDSLRPEDTAFYYCGKSIGHVGGSYRHPIDYWGQGTLVTVS VL: DIQLTQSPSSLSASVGDRVTITCRASQGITDYLAWYQQKPGTIPKLLIYAASTLQSGVPSRFSGGGYGTDFTLTISSLQPEDVATYYCQKYNSAPLTFGGGTKVEIKR", "values": [
      {"measurement": "OD", "setting": "[1]", "result": 0.083, "unit": "OD"},
      {"measurement": "OD", "setting": "[2]", "result": 0.097, "unit": "OD"},
      {"measurement": "OD", "setting": "[3]", "result": 0.102, "unit": "OD"},
      {"measurement": "OD", "setting": "[4]", "result": 0.182, "unit": "OD"},
      {"measurement": "OD", "setting": "[5]", "result": 0.075, "unit": "OD"},
      {"measurement": "OD", "setting": "[6]", "result": 0.163, "unit": "OD"},
      {"measurement": "OD", "setting": "[7]", "result": 0.183, "unit": "OD"},
      {"measurement": "OD", "setting": "[8]", "result": 0.219, "unit": "OD"},
      {"measurement": "OD", "setting": "[9]", "result": 0.981, "unit": "OD"},
      {"measurement": "OD", "setting": "[10]", "result": 0.379, "unit": "OD"}
    ]},
    {"binder": "mAb 5I17 (antibody, V domains shown) VH: EVQLVESGGGVVQPGRSLRLSCAASGFSFSNYAMHWVRQAPGKGLEWVALISFDGSDKYYADSVKGRFTMSRDNSKNTLYLQMNSLRAEDTAVYYCARDEPYCGGDCFAFDVWGQGTMVTVS VL: DIQLTQSPSSLSASAGDRVSMTCRASQIISSSLNWYQQKPGKAPKLLIYAASNLQSGVPSRFSGSGSGTDFTLTISSLQPEDFATYYCQQSYSTPPELTFGGGTKVDIKR", "values": [
      {"measurement": "OD", "setting": "[1]", "result": 1.19, "unit": "OD"},
      {"measurement": "OD", "setting": "[2]", "result": 1.38, "unit": "OD"},
      {"measurement": "OD", "setting": "[3]", "result": 0.566, "unit": "OD"},
      {"measurement": "OD", "setting": "[11]", "result": 0.156, "unit": "OD"},
      {"measurement": "OD", "setting": "[4]", "result": 1.17, "unit": "OD"},
      {"measurement": "OD", "setting": "[5]", "result": 1.98, "unit": "OD"},
      {"measurement": "OD", "setting": "[6]", "result": 0.11, "unit": "OD"},
      {"measurement": "OD", "setting": "[12]", "result": 0.522, "unit": "OD"},
      {"measurement": "OD", "setting": "[7]", "result": 1.93, "unit": "OD"},
      {"measurement": "OD", "setting": "[8]", "result": 0.85, "unit": "OD"},
      {"measurement": "OD", "setting": "[9]", "result": 0.668, "unit": "OD"},
      {"measurement": "OD", "setting": "[13]", "result": 0.267, "unit": "OD"},
      {"measurement": "OD", "setting": "[10]", "result": 1.55, "unit": "OD"},
      {"measurement": "OD", "setting": "[14]", "result": 0.495, "unit": "OD"}
    ]},
    {"binder": "mAb 3N6 (recombinant) (antibody, V domains shown) VH: QVQLQESGPGLVKPSETLSLTCSVSGGSINYYYWSWIRQPPGKGLECIGYISDTGRTYYNPSLRSRVTISVDTSKNQFSLNLTSMTAADTAVYYCARDPTGSRQKNAFDMWGQGTMVTVS VL: AIQMTQSPSSLSASVGDRVTITCRASQNIRSYLNWYQQKPGKAPNLLIYGTTSLESGVPSRFSGSGSGTDFTLTISSLQPEDFATYYCQQSYHTPQTFGQGTKVEIKR", "values": [
      {"measurement": "OD", "setting": "[15]", "result": 0.909, "unit": "OD"},
      {"measurement": "OD", "setting": "[16]", "result": 0.57, "unit": "OD"},
      {"measurement": "OD", "setting": "[17]", "result": 1.03, "unit": "OD"},
      {"measurement": "OD", "setting": "[18]", "result": 2.03, "unit": "OD"},
      {"measurement": "OD", "setting": "[19]", "result": 1.49, "unit": "OD"},
      {"measurement": "OD", "setting": "[20]", "result": 0.801, "unit": "OD"},
      {"measurement": "OD", "setting": "[21]", "result": 2.69, "unit": "OD"},
      {"measurement": "OD", "setting": "[22]", "result": 3.07, "unit": "OD"},
      {"measurement": "OD", "setting": "[23]", "result": 0.084, "unit": "OD"},
      {"measurement": "OD", "setting": "[24]", "result": 0.23, "unit": "OD"}
    ]}
  ]
}
